The text below walks through data of US20220143136A1, “USE OF ANNEXINS IN PREVENTING AND TREATING MUSCLE MEMBRANE INJURY” (NORTHWESTERN UNIVERSITY, priority 2018, published 2022).

One data set concerns Isolated FDB fibers. Put plainly: Single cell Ca2+ and shortening measurements. In kind it is cell-based, mouse. As to conditions: annexin A6 overexpression vs control fibers. The procedure:
Single cell Ca^2+ and shortening measurements. Isolated FDB fibers were plated on laminin coated glass-bottomed 35 mm dishes for one hour and then cultured overnight in DMEM with 10% FBS and 1% penicillin/streptomycin at 37° C. in a 10% CO2 incubator. One hour prior to data acquisition, the medium was removed and cells were incubated in Tyrode buffer (119 mM NaCl, 5 mM KCl, 25 mM HEPES, 2 mM CaCl2, 2 mM MgCl2) with 10 μM Indo-1 AM (TefLabs) for 1 hour at 37° C. in a 10% CO2 incubator. Dishes were then filled with Tyrode buffer, mounted on a custom stage and platinum pacing electrodes were inserted into the dish. Stimulation was elicited using a 701C high-powered stimulator controlled by the 950A software (Aurora Scientific). Stimulation was performed at 40 and 80 Hz, 5 ms pulse width, 100 ms duration. Ratiometric Ca^2+ signals were collected with two photomultiplier tubes and a FluoroDaq controller. Video sarcomere length was recorded with a high-speed camera and fast Fourier transform using the Aurora Scientific 900B-VSL system (Aurora, Ontario). Ten transients were collected over 20 seconds and averaged together per cell per frequency.

Another data set has as its system myofibers. Description: Annexin repair cap formation after laser injury at multiple Ca2+ concentrations. In kind it is cell-based, mouse. As to conditions: fluorescently tagged annexin expressed in myofibers; Ca2+ 0-2 mM; modified Hill equation. The procedure: (§1) Electroporation, myofiber isolation, laser injury, cap and vesicle measurement. Flexor digitorum brevis (FDB) fibers were transfected with endo-free plasmid DNA by in vivo electroporation. Methods were described previously in (Demonbreun and McNally, 2015; Demonbreun et al., 2016b; DiFranco et al., 2009). Z-stack projections were acquired from consecutive acquisitions after the final time-lapse frame, approximately 4 minutes post damage, with a […] step size between slices. Z-stack renderings were constructed in FIJI. Measurement of the cap area and feret diameter were conducted from a single slice near the middle of the z-stack using FIJI imaging tools. Fibers expressing similar levels of tagged or GCaMP5G protein were compared. GCaMP5G Ca^2+ fluorescence was measured from the acquired timelapse images, using a standard rectangular ROI, placed inside the myofiber below the site of damage using FIJI. Fluorescence was expressed as F/F0. External vesicle number and GCaMP5G area were measured from endpoint z-stacks and max projection images using FIJI. Vesicles were considered external if they were found outside the sarcolemma assessed in brightfield and fluorescent channels. All measurements were acquired from myofibers isolated from at least n≥3 mice, n≥3 myofibers per mouse.
Calcium kinetics. FDB muscle was electroporated and isolated as described above. Myofibers were damaged in Ringers solution with Ca^2+ concentrations of 2 mM, 1 mM, 0.5 mM, 0.25 mM, 0.175 mM, 0.1 mM, 0.050 mM, and 0 mM. EDTA was added as a Ca^2+ chelating agent in only in the 0 mM Ca^2+ Ringers. Myofibers were isolated directly into 2 mM, 1 mM and 0.5 mM Ringers for those experiments respectively. For experiments using less than 0.5 mM Ca^2+ myofibers were isolated in 0.5 mM Ca^2+ Ringers and then diluted with 0 mM EDTA-free Ca^2+ Ringers. For 0 mM experiments, myofibers were isolated in 0.5 mM Ca^2+ Ringers and then replaced with 0 mM Ca^2++EDTA Ringers just prior to imaging. Co-electroporation of wildtype annexin+wildtype annexin constructs was performed in one mouse foot, while the contralateral foot was co-electroporated with wildtype annexin+mutant annexin. All measurements were acquired from myofibers isolated from at least n≥2 mice, n≥3 myofibers per mouse at each Ca^2+ concentration. Area-Ca^2+ curves were fitted with a Hill Curve at Ca^2+ concentrations ranging from 0-2 mM. Kinetic parameters were calculated using Prism Graphpad.
as §1, with “(Demonbreun A R, Quattrocelli M, Barefield D Y, Allen M V, Swanson K E,” for “(Demonbreun”, “McNally E M. An actin-dependent annexin complex mediates plasma membrane repair in muscle. The Journal of cell biology. 2016; 213(6):705-18; Demonbreun A R, and McNally E M. DNA Electroporation, Isolation and Imaging of Myofibers. Journal of visualized experiments: JoVE.” for “McNally,”, “106(106):e53551;” for “Demonbreun et al., 2016b;”, “M, Quinonez M, Capote J, and Vergara J. DNA transfection of mammalian skeletal muscles using in vivo electroporation. Journal of visualized experiments: JoVE. 2009; 32(32)).” for “et al., 2009).”, “Vesicles were considered external if they were found outside the sarcolemma assessed in brightfield and fluorescent channels. All measurements were acquired from myofibers isolated from at least n≥3 mice, n≥3 myofibers per mouse.” left out

Data set [1] deals with tibialis anterior muscles of wildtype mice. Description: Cardiotoxin injection and histology 7 days post injury. Type of data set: in vivo, mouse. Particulars: 1 mg/kg retro-orbital 2 hours before cardiotoxin, vs BSA control. The procedure:
Cardiotoxin injection and histology. […] Two hours post injection mice were sedated for a second time. While sedated the tibialis anterior muscles were injected along the midline with 10 μm cardiotoxin in 20 ul of PBS as described above. Seven days post injection, the muscle was isolated and frozen. Muscle sections were acquired every 100 μm from muscle tendon into the mid belly, fixed and stained with hematoxylin and eosin. Imaging was performed using a Zeiss Axio Observer A1 microscope (Zeiss, Oberkochen, Germany), using a 10× objective. ZEN software (Zeiss, Jena, Germany) was used for acquiring tiled images. Percent injury area was calculated as the average injured area (containing internal myonuclei) divided by total muscle area of 3 sections per muscle. One muscle from each group was excluded due to technical error in tissue processing. Damage area was measured using FIJI (NIH).

For a further data set, the system named is Sgcg-null mice. As to conditions: 1 mg/kg, 5 injections over 48 hours, 60 minutes downhill running, vs BSA control.

Like-named read-outs stand apart in the source and are kept apart here.

Protocol for Sgcg-null mice: Serum collection and CK analysis. Mice were sedated (3% isoflurane, 0.8 l/min O2) and blood was collected by means of retro-orbital puncture with heparinized capillary tubes (20-362-566; Fisher Scientific, Waltham, Mass.) into Microtainer™ Gold Top Serum Separator (365967 Becton Dickinson, Franklin Lakes, N.J.) and centrifuged at 8,000×g for 10 minutes. The plasma fractions were frozen and stored at −80° C. Serum creatine kinase (CK) was analyzed in duplicate for each mouse using the EnzyChrom Creatine Kinase Assay (ECPK-100; BioAssay Systems, Hayward, Calif.) following manufacturer's instructions as described (Demonbreun A R, Allen M V, Warner J L, Barefield D Y, Krishnan S, Swanson K E, et al. Enhanced Muscular Dystrophy from Loss of Dysferlin Is Accompanied by Impaired Annexin A6 Translocation after Sarcolemmal Disruption. Am J Pathol. 2016; 186(6):1610-22). Results were acquired with the Synergy HTX multi-mode plate reader (BioTek®, Winooski, Vt.).
Sgcg-null mice were sedated (3% isoflurane, 0.8 l/min O2) and pre-exercise blood was collected by means of left retro-orbital puncture as described above. While sedated, mice were then injected 1 mg/kg recombinant annexin A6 (5186-A6-050, R&D systems) or PBS+1 mg/kg BSA into the right retro-orbital cavity at 9 am and 5 μm for 5 consecutive injection over 48 hours. […] Serum creatine kinase (CK) was analyzed as described above. […]

B1: annexin A6: annexin A6 with carboxyl-terminal turboGFP or tdTomato tag, expressed from plasmid electroporated into myofibers (protein, UniProt P14824 2-673, looked up)
Annexin A6: AKIAQGAMYRGSVHDFPEFDANQDAEALYTAMKGFGSDKESILELITSRSNKQRQEICQNYKSLYGKDLIEDLKYELTGKFERLIVNLMRPLAYCDAKEIKDAISGVGTDEKCLIEILASRTNEQMHQLVAAYKDAYERDLESDIIGDTSGHFQKMLVVLLQGTRENDDVVSEDLVQQDVQDLYEAGELKWGTDEAQFIYILGNRSKQHLRLVFDEYLKTTGKPIEASIRGELSGDFEKLMLAVVKCIRSTPEYFAERLFKAMKGLGTRDNTLIRIMVSRSELDMLDIREIFRTKYEKSLYSMIKNDTSGEYKKALLKLCGGDDDAAGQFFPEAAQVAYQMWELSAVSRVELKGTVCAANDFNPDADAKALRKAMKGIGTDEATIIDIVTHRSNAQRQQIRQTFKSHFGRDLMADLKSEISGDLARLILGLMMPPAHYDAKQLKKAMEGAGTDEKTLIEILATRTNAEIRAINEAYKEDYHKSLEDALSSDTSGHFRRILISLATGNREEGGENRDQAQEDAQVAAEILEIADTPSGDKTSLETRFMTVLCTRSYPHLRRVFQEFIKKTNYDIEHVIKKEMSGDVKDAFVAIVQSVKNKPLFFADKLYKSMKGAGTDEKTLTRVMVSRSEIDLLNIRREFIEKYDKSLHQAIEGDTSGDFMKALLALCGGED
modifications: C-terminal turboGFP or tdTomato tag
notes: annexin A6 with carboxyl-terminal turboGFP or tdTomato tag, expressed from plasmid electroporated into myofibers
As to B1, the “Ca2+ cycling (Indo-1)” value in the data set with Isolated FDB fibers (40 or 80 Hz stimulation) is recorded as “no differences”. For the same molecule, the unloaded cell shortening entry in the data set on Isolated FDB fibers is recorded as “unaffected”. For the same molecule, the “Km1/2 (repair cap area as a function of Ca2+ concentration)” value in the data set on myofibers came out at 0.12 mM.

B2: recombinant annexin A6: recombinant human annexin A6 protein with C-terminal HIS tag (5186-A6-050, R&D systems); mouse protein from Northwestern core in one cohort (protein, UniProt P08133 2-673, looked up)
Annexin A6: AKPAQGAKYRGSIHDFPGFDPNQDAEALYTAMKGFGSDKEAILDIITSRSNRQRQEVCQSYKSLYGKDLIADLKYELTGKFERLIVGLMRPPAYCDAKEIKDAISGIGTDEKCLIEILASRTNEQMHQLVAAYKDAYERDLEADIIGDTSGHFQKMLVVLLQGTREEDDVVSEDLVQQDVQDLYEAGELKWGTDEAQFIYILGNRSKQHLRLVFDEYLKTTGKPIEASIRGELSGDFEKLMLAVVKCIRSTPEYFAERLFKAMKGLGTRDNTLIRIMVSRSELDMLDIREIFRTKYEKSLYSMIKNDTSGEYKKTLLKLSGGDDDAAGQFFPEAAQVAYQMWELSAVARVELKGTVRPANDFNPDADAKALRKAMKGLGTDEDTIIDIITHRSNVQRQQIRQTFKSHFGRDLMTDLKSEISGDLARLILGLMMPPAHYDAKQLKKAMEGAGTDEKALIEILATRTNAEIRAINEAYKEDYHKSLEDALSSDTSGHFRRILISLATGHREEGGENLDQAREDAQVAAEILEIADTPSGDKTSLETRFMTILCTRSYPHLRRVFQEFIKMTNYDVEHTIKKEMSGDVRDAFVAIVQSVKNKPLFFADKLYKSMKGAGTDEKTLTRIMVSRSEIDLLNIRREFIEKYDKSLHQAIEGDTSGDFLKALLALCGGED
modifications: C-terminal His tag
notes: recombinant human annexin A6 protein with C-terminal HIS tag (5186-A6-050, R&D systems); mouse protein from Northwestern core in one cohort
Consider B2, for which the “percentage of injured muscle (internal myonuclei), histology” value in data set [1] was “reduced”; in data set [1] (listed as rANXA6), “reduction”. Also, the “fold change in serum CK post/pre running” value in the data set on Sgcg-null mice is “reduced”; with Sgcg-null mice (listed as rANXA6) it was “significantly reduced”.
